In patent US20080219983A1 (TRIMESTER CUSHION, published 2008):
Residue numbers refer to the chain shown, from its start. One block for each molecule: values may come before it.

T1: Factor Va light chain (human, UniProt P12259 1574-2224)
T1 construct: domain: FVa light chain; also called FVa light chain
T1 sequence (looked up): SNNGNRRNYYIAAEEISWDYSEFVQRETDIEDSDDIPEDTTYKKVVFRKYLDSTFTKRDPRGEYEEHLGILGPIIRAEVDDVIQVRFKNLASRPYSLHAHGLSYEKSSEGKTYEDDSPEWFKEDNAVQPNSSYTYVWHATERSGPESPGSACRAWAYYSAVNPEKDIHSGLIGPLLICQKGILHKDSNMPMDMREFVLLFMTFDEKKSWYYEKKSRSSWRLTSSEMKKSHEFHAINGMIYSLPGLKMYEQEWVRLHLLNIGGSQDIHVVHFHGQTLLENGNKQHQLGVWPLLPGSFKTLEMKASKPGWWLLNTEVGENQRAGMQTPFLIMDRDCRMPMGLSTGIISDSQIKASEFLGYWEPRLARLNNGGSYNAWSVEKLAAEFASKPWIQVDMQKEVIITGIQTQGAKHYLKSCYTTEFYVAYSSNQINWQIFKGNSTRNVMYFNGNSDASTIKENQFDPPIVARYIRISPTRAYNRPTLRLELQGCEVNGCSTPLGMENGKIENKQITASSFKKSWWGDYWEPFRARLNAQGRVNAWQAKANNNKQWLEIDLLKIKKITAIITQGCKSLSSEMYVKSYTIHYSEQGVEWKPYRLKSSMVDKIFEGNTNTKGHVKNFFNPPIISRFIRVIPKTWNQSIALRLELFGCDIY

T2: Recombinant FVIII/FV^1811-1818 light chain chimera (UniProt P00451 1668-2351)
T2 construct: domain: light chain (a3-A3-C1-C2); The single substitutions were worked out from the two printed octapeptides; In the assays it was captured on immobilised scFv EL14
T2 sequence: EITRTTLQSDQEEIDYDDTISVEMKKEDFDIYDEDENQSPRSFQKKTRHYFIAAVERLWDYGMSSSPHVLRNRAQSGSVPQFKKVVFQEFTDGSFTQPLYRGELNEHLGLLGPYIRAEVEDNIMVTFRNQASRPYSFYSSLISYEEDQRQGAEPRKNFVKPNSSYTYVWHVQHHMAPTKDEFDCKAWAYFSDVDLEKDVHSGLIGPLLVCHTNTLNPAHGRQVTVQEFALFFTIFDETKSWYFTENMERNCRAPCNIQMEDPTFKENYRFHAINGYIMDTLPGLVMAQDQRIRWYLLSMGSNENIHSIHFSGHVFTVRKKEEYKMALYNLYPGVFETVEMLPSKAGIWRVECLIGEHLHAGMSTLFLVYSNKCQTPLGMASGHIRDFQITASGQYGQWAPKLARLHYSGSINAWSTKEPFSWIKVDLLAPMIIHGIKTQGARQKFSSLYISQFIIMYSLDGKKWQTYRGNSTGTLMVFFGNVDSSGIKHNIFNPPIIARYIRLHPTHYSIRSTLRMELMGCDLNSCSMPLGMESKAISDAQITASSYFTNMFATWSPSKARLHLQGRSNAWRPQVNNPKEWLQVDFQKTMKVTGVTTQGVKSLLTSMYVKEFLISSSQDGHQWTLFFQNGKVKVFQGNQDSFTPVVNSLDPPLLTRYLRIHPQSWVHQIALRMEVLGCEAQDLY

B1: Synthetic peptide FVIII Lys^1804-Lys^1818 (peptide)
peptide: KNFVKPNETKTYFWK
B2: Synthetic peptide FVIII Tyr^1815-Ala^1834 (peptide)
peptide: YFWKVQHHMAPTKDEFDCKA
B3: Synthetic peptide FVIII Asp^2108-Gly^2117 (peptide)
peptide: DGKKWQTYRG
notes: also called 2108-2117
B4: Recombinant LRP cluster II (receptor, UniProt Q07954 805-1184, looked up)
chain: NKCRVNNGGCSSLCLATPGSRQCACAEDQVLDADGVTCLANPSYVPPPQCQPGEFACANSRCIQERWKCDGDNDCLDNSDEAPALCHQHTCPSDRFKCENNRCIPNRWLCDGDNDCGNSEDESNATCSARTCPPNQFSCASGRCIPISWTCDLDDDCGDRSDESASCAYPTCFPLTQFTCNNGRCININWRCDNDNDCGDNSDEAGCSHSCSSTQFKCNSGRCIPEHWTCDGDNDCGDYSDETHANCTNQATRPPGGCHTDEFQCRLDGLCIPLRWRCDGDTDCMDSSDEKSCEGVTHVCDPSVKFGCKDSARCISKAWVCDGDNDCEDNSDEENCESLACRPPSHPCANNTSVCLPPDKLCDGNDDCGDGSDEGELCDQ
notes: domain: cluster II
B5: scFv KM41 (scFv)
scFv: QVQLLQSAADVKKPGASVKVSCTASGYIFTSYDIDWVRQATGQGLEWMGWMNPNSGNAGFAQKFKGRLTLTRDTSTSTAYMELRRLESEDTAVYYCARSTPHSYSGSGLPPTSDSWGQGTLVTVSSGGGGSGGGGSGGGGSEIVLTQSPGTLSLSPGERATLSCRASQSVSSSFLGWYQQKPGQAPRLLIYGASSRATGIPDRFSGSGSGTDFTLTISRLEPEDFAVYYCQQYGISPLTFGGGTKLEIKRAAAEQKLISEEDLNGAAHHHHHH
notes: Expressed in E. coli TG1
B6: Plasma-derived FVIII light chain (other, UniProt P00451 1668-2351, looked up)
chain: T2 sequence with S163E, S164T, Y165K, V168F, H170K
notes: domain: light chain (a3-A3-C1-C2); Prepared from plasma as in the cited literature; Human by context (the peptides are said to cover human FVIII regions); Residue numbers count on mature FVIII, without the signal peptide; also called LCh; 80-kDa light chain (a3-A3-C1-C2)

Assays:
[1] = target: Purified placenta-derived low-density lipoprotein receptor-related protein (LRP) (UniProt Q07954); experiment: SPR, immobilised LRP, two-site model, site class 1
[2] = target: Purified placenta-derived low-density lipoprotein receptor-related protein (LRP) (UniProt Q07954); experiment: SPR, immobilised LRP, two-site model, site class 2
[3] = target: Purified placenta-derived low-density lipoprotein receptor-related protein (LRP) (UniProt Q07954); experiment: SPR, immobilised LRP, steady-state affinity analysis
[4] = target: B4; experiment: solid-phase competition: peptide against FVIII light chain (25 nM) binding to immobilised LRP cluster II
Experimental: (§1) Solid-phase Binding Assays—Recombinant LRP clusters II or IV (1 pmol/well) were adsorbed onto microtiter wells in 50 mM NaHCO₃ (pH 9.8) in a volume of 50 μl for 16 h at 4° C. Wells were blocked with 2% (w/v) HSA, 150 mM NaCl, 5 mM CaCl₂, and 50 mM Tris (pH 7.4) in a volume of 200 μl for 1 h at 37° C. […] Bound ligand was detected by incubating with peroxidase-conjugated monoclonal antibody CLB-CAg 12 in the same buffer for 15 min at 37° C. […] Residual FVIII binding was detected as described above.
Half-maximum inhibition constants (IC₅₀) represent the mean values ±S.D. of three experiments.)

Factor Va light chain = target: T1, Factor Va light chain; experiment: SPR (BIAcore), FVa light chain immobilised at 76 fmol/mm2, LRP cluster II 100 nM as analyte
Experimental: Response is indicated as Resonance Units (RU) and is corrected for nonspecific binding, which was less than 5% relative to coated channels.
(§2) Surface Plasmon Resonance—The kinetics of protein interactions was determined by surface plasmon resonance (SPR) analysis, employing a BIAcore™2000 biosensor system (Biacore AS, Uppsala, Sweden). […] One control flow-channel was routinely activated and blocked in the absence of protein. […] Dissociation was allowed for 2 min in the same buffer flow. Sensor-chips were regenerated using several pulses of either 100 mM H₃PO₄ or 20 mM EDTA, 1 M NaCl, and 50 mM Hepes (pH 7.4) at a flow rate of 20 μl/min. The association (kₒₙ) and dissociation (koff) rate constants were determined by using the BIAevaluation software 3.1 (Biacore AB, Uppsala, Sweden). Data were corrected for bulk refractive index changes and fitted by nonlinear regression analysis according to a two-site binding model. Equilibrium dissociation constants (kd) were calculated from the ratio koff/kₒₙ. The kd value for low-affinity interactions was estimated using steady-state affinity analysis by using BIAevaluation software.

[5] = target: T2, Recombinant FVIII/FV^1811-1818 light …; experiment: SPR (BIAcore), FVIII/FV1811-1818 light chain chimera captured at 20 fmol/mm2 on immobilised scFv EL14, scFv KM41 40 nM as analyte
Experimental: Response is indicated as Resonance Units (RU) and is corrected for nonspecific binding.
as §2

[6] = target: B6; experiment: solid-phase competition assay: FVIII light chain (25 nM) on immobilised LRP cluster II (1 pmol/well) in the presence of scFv KM41 (0-100 nM); detection with peroxidase-conjugated CLB-CAg 12
Experimental: FIG. 4. […] Data represent the mean ±S.D. of three experiments. […] Complexes were allowed to form for 30 min before SPR analysis.
as §1

[7] = target: B4; experiment: solid-phase binding assay: serial dilutions of FVIII light chain on immobilised LRP cluster II (1 pmol/well); detection with peroxidase-conjugated CLB-CAg 12
Experimental: FIG. 2. […] Data represent the mean ±S.D. of three experiments
as §1

Purified placenta-derived low-density lipoprotein receptor-related protein (LRP), sequence (Q07954 20-4544, form in doubt): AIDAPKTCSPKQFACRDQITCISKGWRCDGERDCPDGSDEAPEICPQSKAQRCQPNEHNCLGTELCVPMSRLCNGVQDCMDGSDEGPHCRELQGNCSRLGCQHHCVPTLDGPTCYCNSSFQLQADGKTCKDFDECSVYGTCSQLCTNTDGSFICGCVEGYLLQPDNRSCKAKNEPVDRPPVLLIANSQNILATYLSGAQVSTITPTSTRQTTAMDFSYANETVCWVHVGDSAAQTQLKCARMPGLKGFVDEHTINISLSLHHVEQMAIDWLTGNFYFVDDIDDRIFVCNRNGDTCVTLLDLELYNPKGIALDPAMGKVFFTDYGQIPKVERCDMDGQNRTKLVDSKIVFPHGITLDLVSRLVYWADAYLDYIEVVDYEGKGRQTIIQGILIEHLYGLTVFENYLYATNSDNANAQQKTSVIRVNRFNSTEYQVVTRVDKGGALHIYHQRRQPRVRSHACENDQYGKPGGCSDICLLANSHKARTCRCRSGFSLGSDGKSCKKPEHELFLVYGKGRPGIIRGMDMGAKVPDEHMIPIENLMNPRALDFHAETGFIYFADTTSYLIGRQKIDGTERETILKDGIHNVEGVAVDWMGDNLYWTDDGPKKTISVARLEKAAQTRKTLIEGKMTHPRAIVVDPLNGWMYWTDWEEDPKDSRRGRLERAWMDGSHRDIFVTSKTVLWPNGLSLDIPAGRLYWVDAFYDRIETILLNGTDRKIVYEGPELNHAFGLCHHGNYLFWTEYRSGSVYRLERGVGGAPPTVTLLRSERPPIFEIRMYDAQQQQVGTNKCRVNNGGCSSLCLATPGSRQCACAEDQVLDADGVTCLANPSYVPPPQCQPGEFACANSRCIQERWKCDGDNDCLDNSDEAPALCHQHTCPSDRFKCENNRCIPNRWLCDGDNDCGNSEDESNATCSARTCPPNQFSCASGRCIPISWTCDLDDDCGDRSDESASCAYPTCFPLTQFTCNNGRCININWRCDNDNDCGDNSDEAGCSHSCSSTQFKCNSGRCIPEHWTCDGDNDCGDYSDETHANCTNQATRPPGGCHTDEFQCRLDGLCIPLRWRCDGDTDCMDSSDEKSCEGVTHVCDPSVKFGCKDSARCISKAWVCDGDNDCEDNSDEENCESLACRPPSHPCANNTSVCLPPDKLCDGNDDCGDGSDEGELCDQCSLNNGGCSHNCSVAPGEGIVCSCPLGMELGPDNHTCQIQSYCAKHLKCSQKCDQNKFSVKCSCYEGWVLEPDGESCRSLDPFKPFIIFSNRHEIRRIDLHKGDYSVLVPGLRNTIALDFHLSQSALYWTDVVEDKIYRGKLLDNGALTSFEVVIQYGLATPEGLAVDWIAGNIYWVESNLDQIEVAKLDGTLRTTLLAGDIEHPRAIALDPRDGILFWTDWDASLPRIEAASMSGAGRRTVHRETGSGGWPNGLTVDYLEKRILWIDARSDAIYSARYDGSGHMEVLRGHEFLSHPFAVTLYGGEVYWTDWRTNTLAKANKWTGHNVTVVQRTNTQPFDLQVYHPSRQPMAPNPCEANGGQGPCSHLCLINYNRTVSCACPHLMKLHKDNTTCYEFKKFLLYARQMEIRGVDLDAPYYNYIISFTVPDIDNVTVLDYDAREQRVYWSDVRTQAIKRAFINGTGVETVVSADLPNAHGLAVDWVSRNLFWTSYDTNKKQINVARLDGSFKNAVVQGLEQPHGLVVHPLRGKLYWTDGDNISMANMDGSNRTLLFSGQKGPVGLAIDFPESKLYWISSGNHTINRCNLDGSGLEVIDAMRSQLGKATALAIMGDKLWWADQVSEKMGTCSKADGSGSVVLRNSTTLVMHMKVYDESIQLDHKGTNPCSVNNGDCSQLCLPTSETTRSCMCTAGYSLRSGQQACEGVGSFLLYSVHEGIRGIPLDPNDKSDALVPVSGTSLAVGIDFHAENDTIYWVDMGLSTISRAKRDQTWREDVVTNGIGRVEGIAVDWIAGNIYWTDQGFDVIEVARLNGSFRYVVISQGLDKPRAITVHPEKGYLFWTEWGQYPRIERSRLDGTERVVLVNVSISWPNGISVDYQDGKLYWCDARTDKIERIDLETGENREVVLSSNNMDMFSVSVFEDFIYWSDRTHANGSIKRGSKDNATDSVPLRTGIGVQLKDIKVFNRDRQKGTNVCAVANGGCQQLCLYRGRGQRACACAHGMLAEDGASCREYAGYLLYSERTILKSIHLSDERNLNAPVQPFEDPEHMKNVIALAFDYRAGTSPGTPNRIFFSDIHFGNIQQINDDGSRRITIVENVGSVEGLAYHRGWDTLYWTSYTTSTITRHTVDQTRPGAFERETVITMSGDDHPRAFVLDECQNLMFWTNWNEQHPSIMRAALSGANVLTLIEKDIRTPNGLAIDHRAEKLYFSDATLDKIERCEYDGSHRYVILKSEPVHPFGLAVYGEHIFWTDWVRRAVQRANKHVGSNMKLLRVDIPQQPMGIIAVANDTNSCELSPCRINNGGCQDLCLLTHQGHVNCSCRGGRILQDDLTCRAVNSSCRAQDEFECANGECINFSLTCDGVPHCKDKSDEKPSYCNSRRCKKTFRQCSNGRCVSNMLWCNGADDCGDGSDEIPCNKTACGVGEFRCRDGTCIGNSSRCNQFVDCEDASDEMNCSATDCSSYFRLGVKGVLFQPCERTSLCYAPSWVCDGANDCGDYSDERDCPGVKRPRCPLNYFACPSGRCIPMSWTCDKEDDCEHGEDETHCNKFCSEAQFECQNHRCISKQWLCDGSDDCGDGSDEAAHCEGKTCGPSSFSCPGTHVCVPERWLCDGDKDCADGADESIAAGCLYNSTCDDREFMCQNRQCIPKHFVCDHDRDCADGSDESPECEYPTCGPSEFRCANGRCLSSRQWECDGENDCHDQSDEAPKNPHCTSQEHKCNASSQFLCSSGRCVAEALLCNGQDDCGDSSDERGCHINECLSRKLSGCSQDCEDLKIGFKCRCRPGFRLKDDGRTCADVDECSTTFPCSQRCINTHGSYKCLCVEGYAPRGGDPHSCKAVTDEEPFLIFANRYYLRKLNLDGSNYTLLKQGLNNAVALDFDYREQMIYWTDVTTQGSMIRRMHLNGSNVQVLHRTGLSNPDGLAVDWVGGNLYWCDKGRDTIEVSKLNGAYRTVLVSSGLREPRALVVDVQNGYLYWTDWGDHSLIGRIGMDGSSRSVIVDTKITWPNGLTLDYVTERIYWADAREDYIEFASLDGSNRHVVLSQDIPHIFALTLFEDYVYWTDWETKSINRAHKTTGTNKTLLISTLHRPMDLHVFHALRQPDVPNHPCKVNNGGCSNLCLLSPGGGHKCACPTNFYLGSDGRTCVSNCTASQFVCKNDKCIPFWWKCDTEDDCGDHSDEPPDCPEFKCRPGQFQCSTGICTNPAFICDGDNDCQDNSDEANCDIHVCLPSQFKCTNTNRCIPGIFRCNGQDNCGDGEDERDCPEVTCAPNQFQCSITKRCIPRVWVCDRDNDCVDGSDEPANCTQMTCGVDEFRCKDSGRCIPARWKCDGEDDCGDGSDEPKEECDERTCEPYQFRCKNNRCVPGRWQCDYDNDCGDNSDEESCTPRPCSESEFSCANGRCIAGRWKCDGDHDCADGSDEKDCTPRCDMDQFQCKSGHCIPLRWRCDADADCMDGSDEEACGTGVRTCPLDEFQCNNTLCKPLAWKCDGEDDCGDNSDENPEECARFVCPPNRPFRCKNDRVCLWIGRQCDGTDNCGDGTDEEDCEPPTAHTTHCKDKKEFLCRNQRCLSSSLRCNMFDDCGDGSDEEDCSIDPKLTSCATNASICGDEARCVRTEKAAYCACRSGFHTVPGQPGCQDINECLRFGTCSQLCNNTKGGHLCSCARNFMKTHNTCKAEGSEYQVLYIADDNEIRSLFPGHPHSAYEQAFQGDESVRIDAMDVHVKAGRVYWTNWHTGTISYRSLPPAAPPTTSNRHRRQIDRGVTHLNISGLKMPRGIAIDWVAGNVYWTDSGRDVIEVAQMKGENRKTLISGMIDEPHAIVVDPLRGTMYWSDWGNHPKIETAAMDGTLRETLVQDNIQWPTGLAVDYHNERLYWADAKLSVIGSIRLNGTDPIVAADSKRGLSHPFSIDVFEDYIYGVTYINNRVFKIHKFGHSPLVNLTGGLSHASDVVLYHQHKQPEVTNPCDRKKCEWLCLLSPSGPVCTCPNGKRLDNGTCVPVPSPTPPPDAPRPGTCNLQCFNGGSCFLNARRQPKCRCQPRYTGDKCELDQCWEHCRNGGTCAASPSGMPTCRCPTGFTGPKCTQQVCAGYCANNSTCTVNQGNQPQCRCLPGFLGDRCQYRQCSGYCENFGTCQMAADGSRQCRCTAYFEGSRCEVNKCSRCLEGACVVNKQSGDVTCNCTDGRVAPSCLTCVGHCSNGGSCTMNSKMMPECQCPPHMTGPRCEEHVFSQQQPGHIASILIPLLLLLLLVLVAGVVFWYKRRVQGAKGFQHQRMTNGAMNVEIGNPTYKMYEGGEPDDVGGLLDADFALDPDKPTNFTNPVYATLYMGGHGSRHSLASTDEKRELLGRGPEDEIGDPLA

Kd [1]: 26 nM
koff [1]: 0.0041 s⁻¹
kon [1]: 160000 M⁻¹ s⁻¹
Kd [2]: 74 nM
koff [2]: 0.08 s⁻¹
kon [2]: 1.1e+06 M⁻¹ s⁻¹
Molecule: Recombinant FVIII a3-A3-C1 fragment (from UniProt P00451 1668-2191)

Kd [1]: 22 nM
koff [1]: 0.003 s⁻¹
kon [1]: 130000 M⁻¹ s⁻¹
Kd [2]: 60 nM
koff [2]: 0.056 s⁻¹
kon [2]: 900000 M⁻¹ s⁻¹
Molecule: Factor Xa-cleaved FVIII light chain (from UniProt P00451 1741-2351)

Kd [3]: 3400 nM
Molecule: Recombinant FVIII C2 domain (from UniProt P00451 2192-2351)

Molecule: B1
IC50 [4]: 1900 nM

Molecule: B2
IC50 [4]: 16800 nM

Molecule: B3
IC50 [4]: 900000 nM

Molecule: B4
binding result (Factor Va light chain): no binding (tested: 100 nM)

Molecule: B5
binding result [5]: no binding (tested: 40 nM)
IC50 (read off the curve) [6]: ~7 nM

Molecule: B6
Kd [1]: 18 nM
Kd [2]: 59 nM
EC50 (read off the curve) [7]: ~20 nM
